Experimental data reported in IntAct's records for PubMed 23178593.

B1: Aprataxin and PNK-like factor (Homo sapiens), Q8IW19 (parent)
chain: MSGGFELQPRDGGPRVALAPGETVIGRGPLLGITDKRVSRRHAILEVAGGQLRIKPIHTNPCFYQSSEKSQLLPLKPNLWCYLNPGDSFSLLVDKYIFRILSIPSEVEMQCTLRNSQVLDEDNILNETPKSPVINLPHETTGASQLEGSTEIAKTQMTPTNSVSFLGENRDCNKQQPILAERKRILPTWMLAEHLSDQNLSVPAISGGNVIQGSGKEEICKDKSQLNTTQQGRRQLISSGSSENTSAEQDTGEECKNTDQEESTISSKEMPQSFSAITLSNTEMNNIKTNAQRNKLPIEELGKVSKHKIATKRTPHKEDEAMSCSENCSSAQGDSLQDESQGSHSESSSNPSNPETLHAKATDSVLQGSEGNKVKRTSCMYGANCYRKNPVHFQHFSHPGDSDYGGVQIVGQDETDDRPECPYGPSCYRKNPQHKIEYRHNTLPVRNVLDEDNDNVGQPNEYDLNDSFLDDEEEDYEPTDEDSDWEPGKEDEEKEDVEELLKEAKRFMKRK

Variants of: B1
Conditions: with xrcc5_human XRCC5, P13010
xrcc5_human XRCC5, P13010, sequence (P13010 whole entry): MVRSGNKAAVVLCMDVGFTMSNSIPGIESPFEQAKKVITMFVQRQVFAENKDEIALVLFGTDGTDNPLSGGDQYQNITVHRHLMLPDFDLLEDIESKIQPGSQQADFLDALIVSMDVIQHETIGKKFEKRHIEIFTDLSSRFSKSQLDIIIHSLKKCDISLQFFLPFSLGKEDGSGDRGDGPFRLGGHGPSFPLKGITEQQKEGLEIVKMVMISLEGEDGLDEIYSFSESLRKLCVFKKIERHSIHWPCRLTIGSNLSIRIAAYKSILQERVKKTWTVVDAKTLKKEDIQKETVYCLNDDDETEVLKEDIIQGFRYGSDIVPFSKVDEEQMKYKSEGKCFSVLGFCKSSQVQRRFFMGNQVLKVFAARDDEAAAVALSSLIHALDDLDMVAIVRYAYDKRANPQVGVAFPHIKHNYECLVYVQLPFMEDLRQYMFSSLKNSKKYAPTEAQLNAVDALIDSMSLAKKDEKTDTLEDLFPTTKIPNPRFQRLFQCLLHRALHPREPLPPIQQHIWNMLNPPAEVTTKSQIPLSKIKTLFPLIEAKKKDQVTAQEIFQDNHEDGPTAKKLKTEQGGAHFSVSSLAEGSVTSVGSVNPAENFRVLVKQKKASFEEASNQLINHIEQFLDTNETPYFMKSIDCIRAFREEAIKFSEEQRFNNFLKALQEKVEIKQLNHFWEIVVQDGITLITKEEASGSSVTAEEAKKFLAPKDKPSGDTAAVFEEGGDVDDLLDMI

| effect of a mutation on the interaction | Variant |
| --- | --- |
| disrupting interaction | MSGGFELQPRDGGPRVALAPGETVIGRGPLLGITDKRVSRRHAILEVAGGQLRIKPIHTNPCFYQSSEKSQLLPLKPNLWCYLNPGDSFSLLVDKYIFRILSIPSEVEMQCTLRNSQVLDEDNILNETPKSPVINLPHETTGASQLEGSTEIAKTQMTPTNSVSFLGENRDCNKQQPILAERKRILPTGMLAEHLSDQNLSVPAISGGNVIQGSGKEEICKDKSQLNTTQQGRRQLISSGSSENTSAEQDTGEECKNTDQEESTISSKEMPQSFSAITLSNTEMNNIKTNAQRNKLPIEELGKVSKHKIATKRTPHKEDEAMSCSENCSSAQGDSLQDESQGSHSESSSNPSNPETLHAKATDSVLQGSEGNKVKRTSCMYGANCYRKNPVHFQHFSHPGDSDYGGVQIVGQDETDDRPECPYGPSCYRKNPQHKIEYRHNTLPVRNVLDEDNDNVGQPNEYDLNDSFLDDEEEDYEPTDEDSDWEPGKEDEEKEDVEELLKEAKRFMKRK [W189G] |
